Laboratory results from patent US20240382628A1.

Biological target: CD11b on cells in whole blood (species not stated) (Homo sapiens (Human)) (UniProt P11215)
Test: adhesion of antibody-bearing backpacks to cells in whole blood

## CD11b antibody (M1/70 clone, Biolegend Purified anti-mouse/human CD11b Antibody Cat #101201/101202), on polymeric particles (backpacks)
  % of CD14+ monocytes with adhered backpacks: 95%
